This passage reports koff and kon results from patent US20180250392A1 (published 2018).

Where a chain is given by its changes, count along the chain named.

The term koff denotes the first-order rate constant of dissociation. The kon is the rate constant with which the complex forms. High values mean fast association, low ones slow association.

One assay addresses rat VEGFR2 (rat, UniProt O08775 20-760, limits assumed). The assay is described as follows: Biacore, rat VEGFR2.
The target of assay [1] is T1, human VEGFR2 (soluble hVEGFR2) (human, UniProt P35968 20-764).
T1 construct: also called KDR
The assay is described as follows: Biacore, human VEGFR2. On the technique in general: In SPR one partner is held on a chip, and binding of the other changes the refractive index at the surface.

Assay [2] has as its target T2, murine VEGFR2 (soluble mVEGFR2) (murine, UniProt P35918 20-762).
T2 construct: also called mouse VEGFR2
The assay is described as follows: Biacore, murine VEGFR2.

T2 sequence (P35918 20-762 limits assumed): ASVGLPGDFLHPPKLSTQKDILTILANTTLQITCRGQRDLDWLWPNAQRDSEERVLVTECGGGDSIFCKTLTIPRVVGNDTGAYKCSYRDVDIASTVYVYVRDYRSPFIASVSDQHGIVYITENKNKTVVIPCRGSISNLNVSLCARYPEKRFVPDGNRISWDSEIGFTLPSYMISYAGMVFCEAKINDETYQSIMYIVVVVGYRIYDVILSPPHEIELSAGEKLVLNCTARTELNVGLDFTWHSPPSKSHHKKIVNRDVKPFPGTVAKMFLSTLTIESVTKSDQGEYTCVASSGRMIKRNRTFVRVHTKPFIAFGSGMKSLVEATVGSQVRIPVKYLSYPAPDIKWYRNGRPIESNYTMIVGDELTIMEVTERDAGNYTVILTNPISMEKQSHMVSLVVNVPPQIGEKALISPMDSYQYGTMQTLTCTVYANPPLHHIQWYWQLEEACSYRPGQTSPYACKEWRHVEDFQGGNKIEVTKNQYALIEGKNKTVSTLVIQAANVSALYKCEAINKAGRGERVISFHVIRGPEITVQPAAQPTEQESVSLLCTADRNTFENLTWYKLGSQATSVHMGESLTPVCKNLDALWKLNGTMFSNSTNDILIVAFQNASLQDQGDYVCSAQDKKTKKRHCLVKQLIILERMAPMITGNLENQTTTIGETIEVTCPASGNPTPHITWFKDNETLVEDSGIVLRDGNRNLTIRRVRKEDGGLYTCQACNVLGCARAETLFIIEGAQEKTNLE
T1 sequence (P35968 20-764 limits assumed): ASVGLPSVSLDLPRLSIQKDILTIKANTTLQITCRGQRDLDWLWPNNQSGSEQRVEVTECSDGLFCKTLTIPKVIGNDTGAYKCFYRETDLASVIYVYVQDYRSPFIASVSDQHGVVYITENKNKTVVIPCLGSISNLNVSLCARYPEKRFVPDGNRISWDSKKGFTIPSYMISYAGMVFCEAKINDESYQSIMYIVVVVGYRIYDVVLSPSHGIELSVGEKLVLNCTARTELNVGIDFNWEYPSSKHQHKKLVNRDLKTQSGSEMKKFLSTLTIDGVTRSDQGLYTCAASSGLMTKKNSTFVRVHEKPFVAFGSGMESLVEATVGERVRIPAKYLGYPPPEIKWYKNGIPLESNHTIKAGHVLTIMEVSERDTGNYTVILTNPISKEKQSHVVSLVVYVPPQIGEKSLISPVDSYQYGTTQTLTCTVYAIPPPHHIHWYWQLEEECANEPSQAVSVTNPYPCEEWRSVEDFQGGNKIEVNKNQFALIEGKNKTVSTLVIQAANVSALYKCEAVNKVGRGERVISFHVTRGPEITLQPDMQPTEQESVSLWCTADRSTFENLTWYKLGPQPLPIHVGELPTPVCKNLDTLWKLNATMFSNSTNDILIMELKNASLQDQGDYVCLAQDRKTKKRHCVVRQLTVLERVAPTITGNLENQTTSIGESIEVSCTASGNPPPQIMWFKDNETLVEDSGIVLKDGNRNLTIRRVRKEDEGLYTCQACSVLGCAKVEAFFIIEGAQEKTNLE
rat VEGFR2, sequence (O08775 20-760 limits assumed): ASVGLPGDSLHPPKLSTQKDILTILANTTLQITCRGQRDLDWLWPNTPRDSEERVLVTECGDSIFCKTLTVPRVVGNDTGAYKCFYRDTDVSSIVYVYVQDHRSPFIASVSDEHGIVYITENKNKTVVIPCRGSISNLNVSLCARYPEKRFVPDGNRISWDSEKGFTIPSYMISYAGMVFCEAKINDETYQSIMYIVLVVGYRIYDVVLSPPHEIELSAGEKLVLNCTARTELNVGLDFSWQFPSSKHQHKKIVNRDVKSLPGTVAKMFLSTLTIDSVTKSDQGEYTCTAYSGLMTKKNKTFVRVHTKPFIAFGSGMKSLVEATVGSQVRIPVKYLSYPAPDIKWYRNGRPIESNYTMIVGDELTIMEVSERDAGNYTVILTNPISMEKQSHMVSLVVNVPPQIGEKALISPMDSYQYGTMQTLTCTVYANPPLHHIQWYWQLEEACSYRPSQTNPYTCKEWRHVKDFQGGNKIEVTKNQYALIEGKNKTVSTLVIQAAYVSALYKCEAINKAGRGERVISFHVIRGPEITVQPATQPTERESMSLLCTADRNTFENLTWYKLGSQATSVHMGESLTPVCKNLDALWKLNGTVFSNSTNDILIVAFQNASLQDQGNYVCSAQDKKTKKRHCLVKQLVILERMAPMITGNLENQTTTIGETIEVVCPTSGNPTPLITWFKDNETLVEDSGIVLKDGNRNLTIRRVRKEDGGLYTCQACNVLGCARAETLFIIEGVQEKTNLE

B1: Mab 149 (B1C4_E5) (antibody, V domains shown)
VH: EVQLLESGGGLVQPGGSLRLSCAASGFTFSWYVMGWVRQAPGKGLEWVSSIYPSGGATNYADSVKGRFTISRDNSKNTLYLQMNSLRAEDTAVYYCARGNYLDYWGQGTLVTVSS
VL: DIQMTQSPGTLSLSPGEGATLSCRASQSVSSNYFGWYQQKPGQAPRLLIYGASSRATGIPDRFSGSGSGTDFTLTISRLEPEDSAVYYCQQFDSSPLSFGGGTKVEIKR
Take B1: the figures for the koff (in the assay with rat VEGFR2; in assay [1]; in assay [2]) were 0.00143 s⁻¹, 0.000659 s⁻¹ and 0.00181 s⁻¹, respectively. The results for the kon (with rat VEGFR2; in assay [1]; in assay [2]) were 33200 M⁻¹ s⁻¹, 86200 M⁻¹ s⁻¹ and 22900 M⁻¹ s⁻¹, respectively.

B2: Mab 147 (B1C4_A7) (antibody, V domains shown)
VH: B1 VH with S54Q, N59S, L102F
VL: B1 VL with S95L, S98T
On to B2, for which the off-rate (koff) is 0.000899 s⁻¹ with rat VEGFR2, 0.000282 s⁻¹ in assay [1] and 0.00128 s⁻¹ in assay [2]. Also, the values for the on-rate (kon) (in the assay with rat VEGFR2; in assay [1]; in assay [2]) were 64500 M⁻¹ s⁻¹, 113000 M⁻¹ s⁻¹ and 43800 M⁻¹ s⁻¹, respectively.
